{"source": "paper PMC5000626", "about": "“Urinary Dopamine as a Potential Index of the Transport Activity of Multidrug and Toxin Extrusion in the Kidney” (International Journal of Molecular Sciences, 2016)", "proteins": {"B1": {"name": "mMATE1 (Mus musculus) (protein)", "chain": "MERTEESAPGPGGADAASERRGLRCLLLPGFLEELRALLVLAGPAFLAQLMMFLISFISSVFCGHLGKLELDAVTLAIAVINVTGISVGHGLSSACDTLISQTYGSQNLKHVGVILQRGTLILLLCCFPCWALFINTEQILLLFRQDPDVSRLTQTYVMIFIPALPAAFLYTLQVKYLLNQGIVLPQIMTGIAANLVNALANYVFLYHLHLGVMGSALANTISQFALAIFLFLYILWRRLHQATWGGWSWECLQDWASFLRLAIPSMLMLCIEWWAYEVGSFLSGILGMVELGAQSITYELAIIVYMIPSGFSVAANVRVGNALGAGNIDQAKKSSAISLIVTELFAVTFCVLLLGCKDLVGYIFTTDRDIVALVAQVIPIYAVSHLFEGLACTCGGILRGTGNQKVGAIVNAIGYYVIGLPIGIALMFAAKLGVIGLWSGIIICTTCQTTCFLAFIARLNWKRACQQAQVHANLKVNVALNSAVSHEPAHPVCPESHGEIMMTDLEKKDETQLDQPMNQQQALPIRPKDSNKLSGKQLALRRGLLLLGVVLVLVGGILVRVYIRIE"}}, "substrate": "NCCc1ccc(O)c(O)c1", "test": "cells, lysate or membranes", "details": "other: [3H]dopamine uptake at 1 min, HEK293 cells expressing mMATE1, mean ± S.E., n=3; pH 7.4; 37.0 °C"}
{"protein": "B1", "values": [{"measurement": "Km", "value": "530 ± 80", "unit": "µM"}]}
